Test results published in doi:10.1101/2025.01.22.634233 (bioRxiv, 2025).

How the values were obtained:
cross-linking = target: the molecule itself; test: cross-linking
[1] = target: T1, biotinylated Avi-BARD1^554-777, wild type (human, UniProt Q99728 554-777, biotinylated by MBP-BirA); test: BLI
T1 sequence: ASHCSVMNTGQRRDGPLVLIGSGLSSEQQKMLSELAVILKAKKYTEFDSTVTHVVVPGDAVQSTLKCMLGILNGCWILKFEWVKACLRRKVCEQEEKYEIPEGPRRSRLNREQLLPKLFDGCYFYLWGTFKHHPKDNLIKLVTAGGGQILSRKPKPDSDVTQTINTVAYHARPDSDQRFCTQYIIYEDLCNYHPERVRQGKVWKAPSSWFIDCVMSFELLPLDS

B1: BARD1 BRCT (BARD1^554-777), wild type (domain or fragment)
chain: ASHCSVMNTGQRRDGPLVLIGSGLSSEQQKMLSELAVILKAKKYTEFDSTVTHVVVPGDAVQSTLKCMLGILNGCWILKFEWVKACLRRKVCEQEEKYEIPEGPRRSRLNREQLLPKLFDGCYFYLWGTFKHHPKDNLIKLVTAGGGQILSRKPKPDSDVTQTINTVAYHARPDSDQRFCTQYIIYEDLCNYHPERVRQGKVWKAPSSWFIDCVMSFELLPLDS
binding result (cross-linking): binds

B2: pS5pS7 GST-(CTD)26 (domain or fragment)
chain: not shown
modifications: phosphoserine at S5 and S7 of the CTD heptads (pS5pS7)
Kd [1]: 193 nM
